# Assay results: the RNAGym collection of RNA variant scans (doi:10.1073/pnas.2313332121)
# B1: TPR t1 (parent)
# chain: GACCAAUCUGCCCUCAGAGCUCGAGAACAUCUUCGGAUGCAGAGGAGGCAGGCUUCGGUGGCGCGAUAGCGCCAACGUCCUCAACCUCCAAUGCAUCCCACCACAUGAUGAUGCCUGAAGAGCCUUGGUUUUUUG
# Variants of: B1
# Assay: polymerase ribozyme fitness, log enrichment relative to wild type (log ratio); higher = more active; in vitro selection for triplet polymerase activity
# Procedure, shortened: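 Each subunit of a heterodimeric triplet polymerase ribozyme was represented by a PCR-built, transcribed mutant library that underwent triplicate single-round in vitro selection with frozen incubation at −7 °C. Extended constructs were recovered by gel excision, streptavidin-bead capture and RT-PCR, and Illumina sequencing of input and output libraries kept genotypes with ≥10 input reads and ≥1 read per output. Fitness is the logarithm of genotype enrichment relative to wild-type enrichment, from inverse-variance-weighted replicate averages, with a logarithm base of 2.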
row,Variant,polymerase ribozyme fitness (log ratio)
1,GACCAAUCUGCCCUCAGAGCUCGAGAACAUCUUCGGAUGCAGAGGAGGCAGGCUUAGGUGGCGCGAUAGCGCCAACGUCCUCAACCUCCAAUGCAUCCCACCACAUGAUGAUGCCUGAAGAGACUUGGUUUUUUG,0.85
2,GACCAAUCUGCCCUCAGAGCUCGAGAACAUCUUCGGAUGCAGAGGAGGCAGGCUUAGCUGGUGCGAUAGCGCCAACGUCCUCAACCUCCAAUGCAUCCCAACAUAUGAUGAUGCCUGAAGAGCCUUGGUUUUUUG,-1.18
3,GACCAAUCUGCCCUCAGAGCUCGAGAACAUCUUCGGAUGCAGAGGAGGCAGGCUUAGGUGGCGCGAUAGCGCCAACGUCCUCAACCUCCAAUGCAUCCCACCACAUGAUGAUGCUUGAAGAGCCUUGGUUUUUUG,-1.67
4,GACCAAUCUGCCCUCAGAGCUCGAGAACAUCUUCGGAUGCAGAGGAGGCAGGCUUAGGUGGCGCGAUAGCUCCAACGUCCUCAACCUCCAAUGCAUCCCACCACAUGAUGAUGCCUGAAGAACCUUGGUUUUUUG,-2.05
5,GACCAAUCUGCCCUCAGAGCUCGAGAACAUCUUCGGAUGCAGAGGAGGCAGGCUUAGGUAGCGCGAUAGCGCCAACGUCCUCAACCUCCAAUGCAUCCCAACACAUGAUGAUGCCUGAAGAGCCUUGGUUUUUUG,-1.49
6,GACCAAUCUGCCCUCAGAGCUCGAGAACAUCUUCGGAUGCAGAGGAGGCAGGCUUAGGUGGCGCGAUAGCACCAACGUCCUCAACCUCCAAUGCAUCCCACCACAUGAUGAUGCCUGAAGAGCCUUGGUUUUUUG,-3.71
7,GACCAAUCUGCCCUCAGAGCUCGAGAACAUCUUCGGAUGCAGAGGAGGCAGGCUUAGGUGGCGCGAUAGCCCCAACGUCCUCAACCUCCAAUGCAUCCCACCACAUGAUGAUGCCUGAAGAGCCUUGGUUUUUUG,-4.4
8,GACCAAUCUGCCCUCAGAGCUCGAGAACAUCUUCGGAUGCAGAGGAGGCAGGCUUAGGUGCUGCGAUAGCGGCAACGUCCUCAACCUCUAAUGCAUCCCACCACAUGAUGAUGCCUGAAGAGCCUUGGUUUUUUG,-0.49
9,GACCAAUCUGCCCUCAGAGCUCGAGAACAUCUUCGGAUGCAGAGGAGGCAGGCUUAGGUGGCACGAUAGCGCCAACGUCCUCAACCUCCAAUACAUCCCCCCACAUGAUGAUGCCUGAAGAGCUUUGGUUUUUUG,-4.2
10,GACCAAUCUGCCCUCAGAGCUCGAGAACAUCUUCGGAUGCAGAGGAGGCAGGCUUAGGUGACGCGAUAGCGCCAACGUCCUCAACCUCCAAUGCAUCCCACCACAUGAUGGUGCCUGAAGAGCCCUGGUUUUUUG,-2.99
11,GACCAAUCUGCCCUCAGAGCUCGAGAACAUCUUCGGAUGCAGAGGAGGCAGGCUUAGGUGGCGCGAUACCGCCAACGUUCUCAACCUCCAAUGCAUCCCACCACAUGAUGAUUCCUAAAGAGCCUUGGUUUUUUG,-5.4
12,GACCAAUCUGCCCUCAGAGCUCGAGAACAUCUUCGGAUGCAGAGGAGGCAGGCUUAGGUGGCGCGAUAGCUCCAACGUCCCCAACCUCCAAUGCAUCCCACCACAUGAUGUUGCUUGAAGAGCCUUGGUUUUUUG,-6.9
13,GACCAAUCUGCCCUCAGAGCUCGAGAACAUCUUCGGAUGCAGAGGAGGCAGGCUUAGGUGGCGCGAUAGCGCCAACGUCCUCAACCUCCAAUGCAUCCCAGCACAUGAUGAUGCCUGAAGAGCCUUGGUUUUUUG,-1.76
14,GACCAAUCUGCCCUCAGAGCUCGAGAACAUCUUCGGAUGCAGAGGAGGCAGGCUUAGGUGGCGCGAUAGCGCCAACGUCCUCAACCUCCAAUGCAUCCCACCAAUUGAUAAUGCCUGAAGAGCCUUGGUUUUUUG,-7.24
15,GACCAAUCUGCCCUCAGAGCUCGAGAACAUCUUCGGAUGCAGAGGAGGCAGGCUUAGGUGGCGCGAUAGCGCCAACGUCCUCAACCUCCAAUGCAUCCCACCAUAAGAAGAUGCCUGAAGAGCCUUGGUUUUUUG,-5.35
16,GACCAAUCUGCCCUCAGAGCUCGAGAACAUCUUCGGAUGCAGAGGAGGCAGGCUUAGCUGGCGCGAUAGCGCCAACGUCCUCAACCUCCAAUGCAUCCCACCACAUGAUGAUGUCUGAAGAGCCUUGGUUUUUUG,-2.47
17,GACCAAUCUGCCCUCAGAGCUCGAGAACAUCUUCGGAUGCAGAGGAGGCAGGCUUAGGUGGCCCGAUAGCGCCAACGUCCUCAACCUCCAAUGCAUCCCACAACAUGAUGAUGCCUGAAGAGCCUUGGUUUUUUG,-4.29
18,GACCAAUCUGCCCUCAGAGCUCGAGAACAUCUUCGGAUGCAGAGGAGGCAGGCUUAGGUGGCGCGAUAGCGCCAACGUCCUCAACCUCCAAUGCAUCCCACCAGAUGAUGAUGCCUGGAGAGCGUUGGUUUUUUG,-5.79
19,GACCAAUCUGCCCUCAGAGCUCGAGAACAUCUUCGGAUGCAGAGGAGGCAGGCUUAGGUGGCGCGAUAACGCCAACGUCCUCAACCUCCAAUGCAUCCCACCACAUGAUGAUGCCUGAAGAGCCUUGGUUUUUUG,-3.3
20,GACCAAUCUGCCCUCAGAGCUCGAGAACAUCUUCGGAUGCAGAGGAGGCAGGCUUAGGUGGCGCGAUAGCGCCAACGUCCUCAACCUCCAAUACAUCCCACCACAUGAUGAUGCCUGAAGAGCCUUGGUUUUUUG,-0.661
21,GACCAAUCUGCCCUCAGAGCUCGAGAACAUCUUCGGAUGCAGAGGAGGCAGGCUUAGGUGGCGCGAUAGCGCCAACGUCCUCAACCUCCAAUCCAUCCCACCACAUGAUGAUGCCUGAAGAGCCUUGGUUUUUUG,-1.88
